The results in this text go back to the MegaScale stability set (Tsuboyama et al. 2023).

B1: 2K2A (parent)
chain: ELREAFRLYDKEGNGYISTDVMREILAELDETLSSEDLDAMIDEIDADGSGTVDFEEFMGVMT

Variants of B1 are the subject of the series. The series can be described thus: folding stability dG (cDNA display proteolysis); higher = more stable. The following applies: PBS, room temperature.
Take L33N: the “folding stability dG” value stood at 0.113 kcal/mol.

Regarding L33K, the “folding stability dG” value stood at 0.956 kcal/mol.

On to L33Y, for which the “folding stability dG” value is 1.43 kcal/mol.

For L33V, the “folding stability dG” value came out at 0.861 kcal/mol.

With L33D, the “folding stability dG” value was -0.084 kcal/mol.

In the case of M41F, the “folding stability dG” value amounted to 1.5 kcal/mol.

On to M41S, for which the “folding stability dG” value was determined as 0.166 kcal/mol.

On to M41K, for which the “folding stability dG” value was 1.49 kcal/mol.

On to M41N, for which the “folding stability dG” value was -0.4 kcal/mol.

As to M41W, the “folding stability dG” value is 2.43 kcal/mol.

For M41T, the “folding stability dG” value was determined as 0.556 kcal/mol.

Take D20M: the “folding stability dG” value was 2.25 kcal/mol.

As to D20L, the “folding stability dG” value was 2.35 kcal/mol.

D20I: the “folding stability dG” value amounted to 2.03 kcal/mol.

Regarding D20V, the “folding stability dG” value came out at 2.14 kcal/mol.

As to D20Y, the “folding stability dG” value is 1.66 kcal/mol.

In the case of D20T, the “folding stability dG” value turned out to be 2.25 kcal/mol.

As for S50A, the “folding stability dG” value stood at 1.11 kcal/mol.

Regarding S50I, the “folding stability dG” value stood at 1.14 kcal/mol.

With S50M, the “folding stability dG” value turned out to be 1.29 kcal/mol.

Turning to S50F, the “folding stability dG” value came to 0.991 kcal/mol.

On to S50Q, for which the “folding stability dG” value worked out at 1.12 kcal/mol.

Turning to S50C, the “folding stability dG” value turned out to be 1.39 kcal/mol.

For the variant D30N, the “folding stability dG” value is 2.1 kcal/mol.

For D30S, the “folding stability dG” value turned out to be 1.4 kcal/mol.

For D30E, the “folding stability dG” value came to 0.964 kcal/mol.

Regarding D30Y, the “folding stability dG” value was 2.36 kcal/mol.

In the case of E28W, the “folding stability dG” value was found to be 1.89 kcal/mol.

For E28D, the “folding stability dG” value is 1.78 kcal/mol.

On to E28F, for which the “folding stability dG” value stood at 1.77 kcal/mol.

For the variant E28G, the “folding stability dG” value came out at 2.28 kcal/mol.

With V61G, the “folding stability dG” value worked out at 1.49 kcal/mol.

Regarding V61I, the “folding stability dG” value is 2.12 kcal/mol.

For V61M, the “folding stability dG” value was 1.83 kcal/mol.

Turning to V61E, the “folding stability dG” value is 0.207 kcal/mol.

Turning to V61W, the “folding stability dG” value amounted to 3.03 kcal/mol.

Consider V61S, for which the “folding stability dG” value stood at 1.26 kcal/mol.

For V61F, the “folding stability dG” value was determined as 2.75 kcal/mol.

For the variant V61P, the “folding stability dG” value amounted to 0.265 kcal/mol.

For L29R, the “folding stability dG” value was 2.12 kcal/mol.

Regarding L29F, the “folding stability dG” value turned out to be 1.91 kcal/mol.

As for R3S, the “folding stability dG” value was determined as 1.42 kcal/mol.

For the variant R3Q, the “folding stability dG” value came to 1.71 kcal/mol.

Regarding R3I, the “folding stability dG” value was 1.99 kcal/mol.

With R3N, the “folding stability dG” value stood at 1.34 kcal/mol.

As for R3P, the “folding stability dG” value was 0.63 kcal/mol.

For the variant Y9V, the “folding stability dG” value was determined as 0.891 kcal/mol.

For the variant Y9P, the “folding stability dG” value amounted to 0.057 kcal/mol.

For Y9N, the “folding stability dG” value was 0.71 kcal/mol.

D54M: the “folding stability dG” value was 1.76 kcal/mol.

Consider D54Y, for which the “folding stability dG” value came to 2 kcal/mol.

In the case of D54T, the “folding stability dG” value worked out at 2.36 kcal/mol.

D54W: the “folding stability dG” value was 1.72 kcal/mol.

D54P: the “folding stability dG” value was 1.14 kcal/mol.

Take D54I: the “folding stability dG” value was determined as 1.27 kcal/mol.

Consider D54R, for which the “folding stability dG” value worked out at 1.73 kcal/mol.

In the case of E1D, the “folding stability dG” value is 2.41 kcal/mol.

For E1T, the “folding stability dG” value came to 2.21 kcal/mol.

Consider E1R, for which the “folding stability dG” value stood at 2.25 kcal/mol.

D46M: the “folding stability dG” value was 0.648 kcal/mol.

With D46E, the “folding stability dG” value was found to be 0.581 kcal/mol.

Turning to D46S, the “folding stability dG” value stood at 0.962 kcal/mol.

Regarding D46N, the “folding stability dG” value worked out at 1.46 kcal/mol.

Turning to D46Y, the “folding stability dG” value was determined as 0.647 kcal/mol.

With D46F, the “folding stability dG” value is 0.726 kcal/mol.

D46I: the “folding stability dG” value stood at 0.796 kcal/mol.

With D46P, the “folding stability dG” value is -0.155 kcal/mol.

For L38I, the “folding stability dG” value worked out at 1.99 kcal/mol.

Take L38D: the “folding stability dG” value is -0.787 kcal/mol.

In the case of L38Y, the “folding stability dG” value was 0.134 kcal/mol.

L38K: the “folding stability dG” value amounted to 0.304 kcal/mol.

On to L38P, for which the “folding stability dG” value was -0.322 kcal/mol.

For the variant L38M, the “folding stability dG” value was 1.26 kcal/mol.

Regarding L38R, the “folding stability dG” value turned out to be 0.432 kcal/mol.

For L38H, the “folding stability dG” value was -0.529 kcal/mol.

Consider L38F, for which the “folding stability dG” value worked out at 0.593 kcal/mol.

Consider E56I, for which the “folding stability dG” value was found to be 1.87 kcal/mol.

In the case of E56Q, the “folding stability dG” value was found to be 1.9 kcal/mol.

With E56G, the “folding stability dG” value was found to be 1.56 kcal/mol.

For the variant E56H, the “folding stability dG” value is 1.88 kcal/mol.

Take R7W: the “folding stability dG” value turned out to be 1.76 kcal/mol.

Consider R7C, for which the “folding stability dG” value stood at 2.22 kcal/mol.

Consider M59K, for which the “folding stability dG” value was determined as 1.81 kcal/mol.

M59D: the “folding stability dG” value stood at 0.144 kcal/mol.

Regarding M59L, the “folding stability dG” value worked out at 1.91 kcal/mol.

As to D43W, the “folding stability dG” value was found to be 2.16 kcal/mol.

Consider D43N, for which the “folding stability dG” value stood at 2.2 kcal/mol.

For D43I, the “folding stability dG” value amounted to 2.04 kcal/mol.

For D43A, the “folding stability dG” value stood at 2.29 kcal/mol.

D43S: the “folding stability dG” value turned out to be 2.18 kcal/mol.

D43F: the “folding stability dG” value came to 2.13 kcal/mol.

D43C: the “folding stability dG” value was found to be 2.1 kcal/mol.

Consider D43R, for which the “folding stability dG” value is 2.35 kcal/mol.

Regarding D43P, the “folding stability dG” value is 0.558 kcal/mol.

Regarding D43M, the “folding stability dG” value was 2.32 kcal/mol.

Turning to D43K, the “folding stability dG” value turned out to be 2.26 kcal/mol.

For the variant G51S, the “folding stability dG” value was 0.834 kcal/mol.

In the case of G51F, the “folding stability dG” value stood at 0.853 kcal/mol.

On to G51M, for which the “folding stability dG” value came to 1.15 kcal/mol.

Turning to G51Y, the “folding stability dG” value was determined as 0.517 kcal/mol.

Turning to G51K, the “folding stability dG” value was 1.27 kcal/mol.

Turning to G51Q, the “folding stability dG” value was found to be 1.01 kcal/mol.

G51W: the “folding stability dG” value was found to be 0.564 kcal/mol.

I42N: the “folding stability dG” value was -0.359 kcal/mol.

In the case of I42G, the “folding stability dG” value is -0.688 kcal/mol.

For the variant I42H, the “folding stability dG” value is -0.459 kcal/mol.

Regarding I42F, the “folding stability dG” value turned out to be 1.08 kcal/mol.

Take F6M: the “folding stability dG” value worked out at 0.623 kcal/mol.

For F6K, the “folding stability dG” value was found to be 0.192 kcal/mol.

In the case of F6V, the “folding stability dG” value was 0.529 kcal/mol.

For F6Y, the “folding stability dG” value came out at 0.586 kcal/mol.

As for F6N, the “folding stability dG” value was determined as 0.361 kcal/mol.

Consider F6R, for which the “folding stability dG” value amounted to 0.468 kcal/mol.

Regarding F6S, the “folding stability dG” value is 0.268 kcal/mol.

As to N14E, the “folding stability dG” value stood at 0.908 kcal/mol.

For the variant N14V, the “folding stability dG” value amounted to 2.07 kcal/mol.

N14C: the “folding stability dG” value is 1.43 kcal/mol.

Turning to N14F, the “folding stability dG” value came out at 1.7 kcal/mol.

With N14T, the “folding stability dG” value came out at 1.74 kcal/mol.

On to N14G, for which the “folding stability dG” value is 0.728 kcal/mol.

As to E57T, the “folding stability dG” value stood at 2.46 kcal/mol.

Take E57C: the “folding stability dG” value was 2.01 kcal/mol.

Turning to E57H, the “folding stability dG” value stood at 2.18 kcal/mol.

Regarding E57S, the “folding stability dG” value came to 2.39 kcal/mol.

E57Y: the “folding stability dG” value was determined as 1.58 kcal/mol.

Turning to E57A, the “folding stability dG” value worked out at 2.47 kcal/mol.

Take E57K: the “folding stability dG” value is 2.58 kcal/mol.

Regarding E57F, the “folding stability dG” value is 1.47 kcal/mol.

For the variant T32I, the “folding stability dG” value is 0.878 kcal/mol.

On to T32V, for which the “folding stability dG” value was found to be 0.877 kcal/mol.

On to T32E, for which the “folding stability dG” value was found to be 1.48 kcal/mol.

In the case of T32H, the “folding stability dG” value was found to be 1.8 kcal/mol.

In the case of T32A, the “folding stability dG” value worked out at 1.5 kcal/mol.

Turning to A47H, the “folding stability dG” value was found to be 1.96 kcal/mol.

A47L: the “folding stability dG” value turned out to be 1.78 kcal/mol.

As for A47W, the “folding stability dG” value stood at 1.96 kcal/mol.

For the variant G60M, the “folding stability dG” value amounted to 2.5 kcal/mol.

Turning to G60D, the “folding stability dG” value was 1.75 kcal/mol.

Take G60W: the “folding stability dG” value is 2.79 kcal/mol.

As for G60S, the “folding stability dG” value was 2.29 kcal/mol.

Turning to G60R, the “folding stability dG” value is 2.82 kcal/mol.

G60P: the “folding stability dG” value was determined as 0.712 kcal/mol.

For G13L, the “folding stability dG” value came out at 1.11 kcal/mol.

As for G13Q, the “folding stability dG” value turned out to be 1.26 kcal/mol.

Regarding G13W, the “folding stability dG” value was 0.579 kcal/mol.

For the variant G13K, the “folding stability dG” value stood at 1.14 kcal/mol.

On to G13A, for which the “folding stability dG” value was 1.05 kcal/mol.

Regarding G13D, the “folding stability dG” value came out at 1.41 kcal/mol.

With G13E, the “folding stability dG” value stood at 1.1 kcal/mol.

On to G13T, for which the “folding stability dG” value amounted to 0.448 kcal/mol.

In the case of A27Y, the “folding stability dG” value was 1.75 kcal/mol.

Turning to A27Q, the “folding stability dG” value amounted to 1.93 kcal/mol.

In the case of A27K, the “folding stability dG” value was 2.21 kcal/mol.

Regarding A27T, the “folding stability dG” value turned out to be 1.6 kcal/mol.

With A27P, the “folding stability dG” value is -0.602 kcal/mol.

Take A27F: the “folding stability dG” value came to 1.73 kcal/mol.

As to A27M, the “folding stability dG” value stood at 2.03 kcal/mol.

For the variant A27C, the “folding stability dG” value is 1.47 kcal/mol.

Take A27R: the “folding stability dG” value is 2.25 kcal/mol.

Regarding D10I, the “folding stability dG” value came out at 1.21 kcal/mol.

Take D10T: the “folding stability dG” value was 0.563 kcal/mol.

On to D10E, for which the “folding stability dG” value was 0.386 kcal/mol.

Take D10R: the “folding stability dG” value was -0.527 kcal/mol.

Take D10M: the “folding stability dG” value was 1.39 kcal/mol.

With D10Y, the “folding stability dG” value was found to be 1.15 kcal/mol.

Regarding D10F, the “folding stability dG” value turned out to be 1.66 kcal/mol.

Regarding D10L, the “folding stability dG” value came to 1.26 kcal/mol.
